This is an account of results in article PMC9675756.

pKd, pKi: −log10 of the molar value.

Series [1] deals with A3G-CTD2 (catalytically active), crystal and NMR construct (human) (UniProt Q9HC16). Nature of the series: competitive inhibition of deamination, real-time 1H NMR. The following applies: N at position 6 = 2'-deoxy-zebularine (replaces target C); hydrated to 4-(R)-hydroxy-3,4-dihydro form in the active enzyme; DTT, 0.002% Tween 20, 50 nM protein, RED-tris-NTA dye, 23 C; NMR inhibition: 50 mM NaPO4 pH 6.5, 100 mM NaCl, 0.00.

For series [2], the target named is A3G-CTD2 (catalytically active soluble variant), MST construct (human) (UniProt Q9HC16). As to the kind of experiment: MST. The note with it: 23 C, apparent Kd, active enzyme hydrates dZ, N at position 6 = 2'-deoxy-zebularine (replaces target C), hydrated to 4-(R)-hydroxy-3,4-dihydro form in the active enzyme, MST: 20 mM Bis-Tris pH 6.5, 100 mM NaCl, 1 mM DTT, 0.002% Tween 20, 50 nM protein, RED-tris-NTA dye, NMR inhibition: 50 mM NaPO4 pH 6.5, 100 mM NaCl ….

Series [3] deals with A3G-CTD2* (catalytically inactive), MST construct E259A (human) (UniProt Q9HC16). As to the kind of experiment: MST. The following applies: N at position 6 = 2'-deoxy-zebularine (replaces target C); hydrated to 4-(R)-hydroxy-3,4-dihydro form in the active enzyme; MST: 20 mM Bis-Tris pH 6.5, 100 mM NaCl, 1 mM DTT, 0.002% Tween 20, 50 nM protein, RED-tris-NTA dye, 23 C; NMR inhibition: 50 mM NaPO4 pH 6.5, 100 mM NaCl ….
Chain of A3G-CTD2* (catalytically inactive), MST construct E259A (human) (Q9HC16 191-384 E259A): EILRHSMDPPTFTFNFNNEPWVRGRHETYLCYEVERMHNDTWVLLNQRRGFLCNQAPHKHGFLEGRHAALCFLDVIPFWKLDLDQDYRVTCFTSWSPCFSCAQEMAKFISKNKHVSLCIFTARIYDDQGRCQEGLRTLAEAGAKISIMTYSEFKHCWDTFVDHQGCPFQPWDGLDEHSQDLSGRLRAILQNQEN

Chain of A3G-CTD2 (catalytically active), crystal and NMR construct (human) (Q9HC16 191-384): as the sequence (Q9HC16 191-384 E259A) above, with A69E counted along it

With “AATCCNAAA [5'-AATCCdZAAA (dZ-ssDNA inhibitor)]”, in series [1], the pKi was 5.51. For the same sequence, the pKd is 6.57 in series [2] and 4.84 in series [3].

The pKi is the Ki on a negative log10 scale, so that one unit is a factor of ten. High values mean a small Ki, low ones a large Ki. A word on the pKd: it is −log10 of the Kd, conventionally taken in molar units.
